The values below come from article PMC4820748, “Structural basis for the membrane association of ankyrinG via palmitoylation” (Scientific Reports, 2016).

The series concerns the molecule itself. Description: crystal structure; oxidized form, C121 crystal; sitting-drop vapor diffusion at 20 °C; reservoir 10 mM MgCl2-hexahydrate, 50 mM Tris-HCl (pH 7.5), 1.6 M (NH4)2SO4; asymmetric unit holds one dimeric molecule.

B1: AnkG (R1-R5), head-section of the membrane-binding domain of rat ankyrin-G (domain or fragment)
chain: GTKSDANASYLRAARAGHLEKALDYIKNGVDVNICNQNGLNALHLASKEGHVEVVSELLQREANVDAATKKGNTALHIASLAGQAEVVKVLVTNGANVNAQSQNGFTPLYMAAQENHLEVVRFLLDNGASQSLATEDGFTPLAVALQQGHDQVVSLLLENDTKGK
notes: two extra residues, Gly-Thr, left at the N-terminus after the TEV cleavage; In the oxidized form two chains are linked by a disulfide bond between the two Cys70 residues; in the reduced form Cys70 is free; also called ANK3 (R1-R5); AnkG palmitoylation domain; source: E. coli BL21(DE3)pLysS, purified (nickel column, TEV cleavage, superdex200 gel filtration); not shown: His tag, N-terminal, cleaved
As to B1, the “stoichiometry N” value was 2.

One may read the stoichiometry N as a count of units in the complex or per binding partner.
